Positions of bridges follow the written chain, without caps; N, C: chain ends. Non-standard residues stand in square brackets, D forms with d. Re(V)O = rhenium(V) oxo core coordinated by cysteine thiolates and amide nitrogens
B1: Cys^4,10, D-Phe^7-α-MSH4-13 (APOMSH) (peptide)
peptide: Ac-CEH[dF]RWCKPV-NH2
modifications: disulfide 1-7
SMILES: CC(=O)N[C@H]1CSSC[C@@H](C(=O)N[C@@H](CCCCN)C(=O)N2CCC[C@H]2C(=O)N[C@H](C(N)=O)C(C)C)NC(=O)[C@H](Cc2c[nH]c3ccccc23)NC(=O)[C@H](CCCNC(=N)N)NC(=O)[C@@H](Cc2ccccc2)NC(=O)[C@H](Cc2c[nH]cn2)NC(=O)[C@H](CCC(=O)O)NC1=O
notes: Synthetic cyclic α-MSH analog without metal; starting peptide for ReMSH; also called metal-free peptide
B2: ReMSH (peptide)
peptide: CEHFRWCKPV
modifications: not fully specified; N-terminal acetyl; D-Phe at position 7 (α-MSH numbering); C-terminal amide; cyclized by a Re(V)O core coordinated by the thiolate sulfurs of Cys4 and Cys10 and the amide nitrogens of Trp9 and Cys10
notes: Nonradioactive rhenium complex of APOMSH; also called rhenium α MSH analog ReMSH; ReMSH complex
B3: ReCCMSH (peptide)
peptide: Ac-CCEH[dF]RWCKPV-NH2
modifications: bridge 1-2-8 via Re(V)O; not fully specified; printed as NAc-Cys-Cys-Glu-His-D-Phe-Arg-Trp-Cys-Lys-Pro-Val-NH2; also: Re(V)O complex via thiolates of Cys3, Cys4, Cys10 and amide N of Cys4
notes: Nonradioactive rhenium complex of the APOMSH analog with an additional N-terminal Cys (Cys3); also called ReCCMSH analog

Experiments:
[1] = biological target: T1, α-MSH receptor on B16-F1 murine melanoma cells (murine, UniProt Q01727 1-315); experiment: cell-based or functional assay
[2] = biological target: T1, α-MSH receptor on B16-F1 murine …; experiment: competitive receptor binding on B16-F1 murine melanoma cells, displacement of ^125I-[Nle4, D-Phe7]-α-MSH, 4° C., 8 hours
Description: (§1) Quantitative receptor binding assays were carried out following a previously described method (Siegrist W., 1988; Sahm, U. G., 1994). […] The cells were rinsed with PBS, lysed with 1 M NaOH and counted in a 1275 minigamma gamma counter from LKB Wallac.
The bioactivities of APOMSH and the ReMSH complex were assayed by measuring stimulation of melanin production by B16-F1 murine melanoma cells. The $EC50$ values for melanin synthesis by APOMSH and ReMSH were 2.6 ×10^-11 and 5.4 ×10^-10, respectively. […] Receptor binding assays were performed with APOMSH and ReMSH on B16-F1 murine melanoma cells.

[3] = biological target: T1, α-MSH receptor on B16-F1 murine …; experiment: cell-based or functional assay; remark: listed apart in the source
[4] = biological target: T1, α-MSH receptor on B16-F1 murine …; experiment: competitive receptor binding on B16-F1 murine melanoma cells
Description: as §1
The ^99mTc- and ^188Re-labeled analogs of ReCCMSH were virtually inert to substitution in 10 mM Cys competition assays, while the ^99mTc- and ^188Re-labeled analogs of ReMSH were readily exchanged under the same assay conditions (Table 2). This increased stability of ReCCMSH probably resulted from the presence of an additional sulfur donor atom and from decreased backbone strain in the molecule due to the increased ring size. […] The ability of the ReCCMSH analog to stimulate melanin production was almost identical to APOMSH (Table 3).

T1 sequence (Q01727 whole entry): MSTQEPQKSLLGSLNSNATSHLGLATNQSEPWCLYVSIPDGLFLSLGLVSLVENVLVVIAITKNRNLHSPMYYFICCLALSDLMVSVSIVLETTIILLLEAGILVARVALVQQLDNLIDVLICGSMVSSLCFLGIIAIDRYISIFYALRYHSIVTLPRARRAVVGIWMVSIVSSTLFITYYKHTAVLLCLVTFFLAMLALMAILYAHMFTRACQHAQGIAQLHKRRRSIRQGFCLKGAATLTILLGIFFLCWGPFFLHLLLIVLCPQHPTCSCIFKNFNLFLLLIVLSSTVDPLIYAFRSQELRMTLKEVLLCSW

| Binder | EC50 (M), melanin production by B16-F1 murine melanoma cells [1] [M] | Ki [2] [pM] | fold decrease in the ability to stimulate melanin production compared to APOMSH [3] [fold] | fold decrease in receptor binding affinity compared to APOMSH [4] [fold] | fold higher receptor binding affinity than ReMSH [4] [fold] |
| --- | --- | --- | --- | --- | --- |
| B1 | 2.6e-11 | 680 |  |  |  |
| B2 | 5.4e-10 | 66000 | ~20 | ~100 |  |
| B3 | 3.5e-11 | 2900 |  |  | ~25 |

Source: US6607709 (CURATORS OF THE UNIVERSITY OF MISSOURI, dated 2003)
